{"source": "paper PMC5146963", "key": {"[1]": {"system": "EcFrmR (Escherichia coli K12)", "assay": "BLI", "details": "BLItz, 50 mM Tris-HCl pH 8.0, 0.5 M NaCl, 20 C, 100 nM biotinylated DNA loaded on SA tips, EcFrmR concentrations as tetramer"}, "[2]": {"molecular_target": "T1, EcFrmR (Escherichia coli K12) (UniProt P0AAP3)", "T1 sequence": "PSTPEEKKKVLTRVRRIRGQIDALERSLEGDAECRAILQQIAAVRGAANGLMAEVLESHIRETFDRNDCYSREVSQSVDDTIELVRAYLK", "assay": "BLI", "details": "BLItz, 50 mM Tris-HCl pH 8.0, 0.5 M NaCl, 20 C; 100 nM biotinylated DNA loaded on SA tips; EcFrmR concentrations as tetramer"}}, "note": "Where “and” joins values, the source holds several entries; their conditions need not be identical. Identical values can stand only once.", "data": [{"substance": "Pfrm (frmRAB promoter)", "values": [{"measurement": "Kd", "setting": "[1]; Zn(II)4-loaded tetramer, kf 5660 M-1 s-1, kr 0.003 s-1", "result": 520, "unit": "nM"}, {"measurement": "Kd", "setting": "[1]; no Zn, no HCHO, kf 13000 M-1 s-1, kr 0.0028 s-1, text ~220, upper limit", "result": 220, "unit": "nM"}]}, {"substance": "GTTAAGGGCTCAGAATAATCACATTATTTTTTCTCCTAACCATAAAGGATTAGTTTATCGGCGTTAATCTTTTCTCATACACTATCGGGTTAGGGAAAATATCTGGTGTTGGGGACAGAGTCAGCAGCGTATTAGTTGAATGCTTAATATCAGGCTGCTGAATTGTCAGCACTGTGTTTGCGAAGAGGATGCGAAATAAATGAACCCGGTTGATCGTCCACTATTAG (double strand) [PydhY]", "values": [{"measurement": "Kd", "setting": "[2]", "result": 3600, "unit": "nM"}]}, {"substance": "GGCCTTCCCTGCCGATTAGCCCCCCCCCCTTTCCTCTTTGTTTTCCGACCACATTCACCGGATAAATTTTATTCTCCAGTGTTATATACTATAGGGGGGTATGCATTGACATATAGAATACCCCCCTATAGTATATTGCATGCAGATGATGAGGTGCGAAATGCCCAGTACTCCGGAAGAGAAGAAA (double strand) [Pfrm (frmRAB promoter)]", "values": [{"measurement": "Kd", "setting": "[2]", "result": "220 nM and 520 nM"}]}, {"substance": "PydhY", "values": [{"measurement": "Kd", "setting": "[1]; no Zn, no HCHO, kf 1950 M-1 s-1, kr 0.007 s-1, text ~3600", "result": 3600, "unit": "nM"}]}]}
